Consider 15 molecules from patent US6495314 (Scripps Research, dated 2002).

To fix the notation:
B8: control peptide Ac-CAcpYGGFL.amide (YGGFL = leucine enkephalin) (peptide)
peptide: Ac-CYGGFL-NH2
modifications: not fully specified (residue 1); also: Cys side chain coupled to Sulfolink agarose
notes: also called Ac-CBYGGFL.amide; Leucine-Enkephalin agarose column

For assay [1], the target named is T1, Ac-CWAcp-PPPALPPKKR.amide, C3G-derived peptide designed for attachment to an affinity column (N-terminal acetyl; ε-aminocaproic acid (Acp, B) at position 3; C-terminal amide; on the column the Cys side chain is coupled to iodoacetyl agarose (Sulfolink)).
T1 construct: also called Acetyl-CWAcp-C3G; Ac-CWBPPPALPPKKR.amide
T1 peptide: CWPPPALPPKKR
Description: 19-member array on C3G peptide affinity column, MALDI MS readout.

Assay [2] concerns the target B8. The experiment in a line: nine-member array on control peptide column, A280. Here is the method:
The column was then washed with 0.5 M NaCl buffer to remove nonspecific binding proteins from the column. Specifically bound protein analogues were then eluted with 1 M hydroxylamine bufffer. Amounts of eluted peptide were monitored by UV absorbance at 280 nm. This procedure was used for both the C3G peptide column and for the control column loaded with Ac-C-AcpYGGFL.amide.
Affinity chromatography of the arrays of protein analogues was carried out as follows. […] After incubation at room temperature for a period of 6–8 hours the column was washed with 0.5 M NaCl in 0.1 M sodium phosphate, pH 7.0 buffer (6×1 mL) to remove any non-specifically bound proteins. The first two 1 mL fractions were collected and immediately mixed with an equal volume of 1 M NH_2OH, 20 mM NH_4HCO_3, pH 5.5 buffer to cleave any thioester-containing protein analogues. […] Samples of the eluted fractions were monitored by UV absorbance at 280 nm. This procedure was used for both the C3G peptide column and for the control column loaded with Ac-C-Acp-YGGFL.amide. To accommodate MALDI analysis, both the 0.5M NaCl wash and 1 M NH_2OH fractions were desalted on a low pressure, disposable C-18 column, washed with HPLC buffer A and peptide fragments eluted with 1.5 mL 60% acetonitrile in water, 0.1% TFA.

For assay [3], the target named is T2, synthetic murine cCrk N-terminal SH3 domain (residues 134-191) (murine, UniProt Q64010 134-191).
T2 construct: Made by total chemical synthesis and folded in HEPES/NaCl buffer; also called cCrk(134-191); c-Crk SH3
Description: tryptophan fluorescence titration in solution, 12 hours incubation. Here is the method:
(§1) The resulting synthetic protein domain was then assayed for its affinity for two different proline-rich peptides. […] This change in solvent exposure leads to an increase in the fluorescence intensity of the tryptophan sidechain which can be monitored as a function of increasing ligand concentration (Feng et al. *Science* 1994.266, 1241–1245).
(§2) 1994, 3, 1261–1266. The purified and lyophilized 58 residue polypeptide chain (0.2 mg) was folded by dissolving in 0.6 mL of 20 mM Hepes, 60 mM NaCl, pH 7.3 to produce a folded protein solution (~50 μM).

For assay [4], the target named is T2, synthetic murine cCrk N-terminal SH3 …. Description: in solution; method not stated in the legend. Here is the method: as §1, §2
Target sequence in this assay (Q64010 134-191 limits assumed): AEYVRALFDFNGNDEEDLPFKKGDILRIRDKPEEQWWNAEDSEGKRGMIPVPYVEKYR
Assay [5] addresses T1, Ac-CWAcp-PPPALPPKKR.amide, C3G-derived …. Description: Gly-[COS]-Gly array on C3G peptide affinity column, MALDI MS readout (FIG. 27A).
Assay [6] deals with T2, synthetic murine cCrk N-terminal SH3 …. The experiment in a line: control peptide affinity column.

No end group written: not given here.

B1: c-Crk N-terminal SH3 domain (134-191) analogue, dipeptide KK (154-155) replaced by Gly-[COS]-βAla (other)
chain: AEYVRALFDFNGNDEEDLPFGXGDILRIRDKPEEQWWNAEDSEGKRGMIPVPYVEKYR
modifications: not fully specified; Gly-[COS]-βAla unit (-NH-CH2-CO-S-CH2-CH2-CO-) in place of K154-K155; backbone thioester
notes: It is one of the 19 dipeptide positions within c-Crk(146-165); Positions count on murine c-Crk; X = -S-CH2CH2-CO- unit; Tested crude in a pooled array
B1: the binding result in assay [1] is listed as “no binding”.

B2: c-Crk N-terminal SH3 domain (134-191) analogue, dipeptide LR (159-160) replaced by Gly-[COS]-βAla (other)
chain: AEYVRALFDFNGNDEEDLPFKKGDIGXIRDKPEEQWWNAEDSEGKRGMIPVPYVEKYR
modifications: not fully specified; Gly-[COS]-βAla unit (-NH-CH2-CO-S-CH2-CH2-CO-) in place of L159-R160; backbone thioester
notes: Positions count on murine c-Crk; X = -S-CH2CH2-CO- unit; also called Gly-SβAla analogue
As to B2, the binding result in assay [1] and in assay [2] was “no binding” each time.

B3: c-Crk N-terminal SH3 domain (134-191) analogue, dipeptide PF (152-153) replaced by Gly-[COS]-βAla (other)
chain: AEYVRALFDFNGNDEEDLGXKKGDILRIRDKPEEQWWNAEDSEGKRGMIPVPYVEKYR
modifications: not fully specified; Gly-[COS]-βAla unit (-NH-CH2-CO-S-CH2-CH2-CO-) in place of P152-F153; backbone thioester
notes: as for B1
In the case of B3, in assay [1], the binding result was “no binding”.

B4: c-Crk N-terminal SH3 domain (134-191) analogue, dipeptide FK (153-154) replaced by Gly-[COS]-βAla (other)
chain: AEYVRALFDFNGNDEEDLPGXKGDILRIRDKPEEQWWNAEDSEGKRGMIPVPYVEKYR
modifications: not fully specified; Gly-[COS]-βAla unit (-NH-CH2-CO-S-CH2-CH2-CO-) in place of F153-K154; backbone thioester
notes: as for B1
Consider B4, for which the binding result in assay [1] is reported as “no binding”.

Broadly, the Kd is the concentration at which binding is half-saturated. For the molecule PPPALPPKKR-NH2 (also called C3G peptide) [C3G-derived peptide PPPALPPKKR.amide], the Kd in assay [3] worked out at 1800 nM; in assay [4], 2300 nM.

B5: c-Crk N-terminal SH3 domain (134-191) analogue, dipeptide RD (162-163) replaced by Gly-[COS]-Gly (other)
chain: AEYVRALFDFNGNDEEDLPFKKGDILRIGGKPEEQWWNAEDSEGKRGMIPVPYVEKYR
modifications: not fully specified; Gly-[COS]-Gly unit (-NHCH2CO-SCH2CO-) in place of R162-D163; backbone thioester (S in place of the NH of residue 163)
notes: Member of the nine-member Gly-[COS]-Gly array over cCrk(156-165); Positions count on murine c-Crk; also called RD (Gly-[COS]-Gly array)
Turning to B5, the binding result in assay [5] was “binds”.

B6: c-Crk N-terminal SH3 domain (134-191) analogue, dipeptide IL (158-159) replaced by Gly-[COS]-Gly (other)
chain: AEYVRALFDFNGNDEEDLPFKKGDGGRIRDKPEEQWWNAEDSEGKRGMIPVPYVEKYR
modifications: not fully specified; Gly-[COS]-Gly unit (-NHCH2CO-SCH2CO-) in place of I158-L159; backbone thioester (S in place of the NH of residue 159)
notes: Member of the nine-member Gly-[COS]-Gly array over cCrk(156-165); Positions count on murine c-Crk; also called IL (Gly-[COS]-Gly array)
In the case of B6, in assay [5], the binding result is “binds”.

B7: c-Crk N-terminal SH3 domain (134-191) analogue, dipeptide IR (161-162) replaced by Gly-[COS]-Gly (other)
chain: AEYVRALFDFNGNDEEDLPFKKGDILRGGDKPEEQWWNAEDSEGKRGMIPVPYVEKYR
modifications: not fully specified; Gly-[COS]-Gly unit (-NHCH2CO-SCH2CO-) in place of I161-R162; backbone thioester (S in place of the NH of residue 162)
notes: Member of the nine-member Gly-[COS]-Gly array over cCrk(156-165); Positions count on murine c-Crk; also called IR (Gly-[COS]-Gly array)
For B7, in assay [5], the binding result is on record as “binds”.

As to B8, the binding result in assay [6] is listed as “no binding”.

B9: c-Crk N-terminal SH3 domain (134-191) analogue, dipeptide DI (157-158) replaced by Gly-[COS]-Gly (other)
chain: AEYVRALFDFNGNDEEDLPFKKGGGLRIRDKPEEQWWNAEDSEGKRGMIPVPYVEKYR
modifications: not fully specified; Gly-[COS]-Gly unit (-NHCH2CO-SCH2CO-) in place of D157-I158; backbone thioester (S in place of the NH of residue 158)
notes: Member of the nine-member Gly-[COS]-Gly array over cCrk(156-165); Positions count on murine c-Crk; also called DI (Gly-[COS]-Gly array)
Consider B9, for which the binding result in assay [5] was “binds”.

B10: c-Crk N-terminal SH3 domain (134-191) analogue, dipeptide LR (159-160) replaced by Gly-[COS]-Gly (other)
chain: AEYVRALFDFNGNDEEDLPFKKGDIGGIRDKPEEQWWNAEDSEGKRGMIPVPYVEKYR
modifications: not fully specified; Gly-[COS]-Gly unit (-NHCH2CO-SCH2CO-) in place of L159-R160; backbone thioester (S in place of the NH of residue 160)
notes: Member of the nine-member Gly-[COS]-Gly array over cCrk(156-165); Positions count on murine c-Crk; also called LR (Gly-[COS]-Gly array)
Consider B10, for which, in assay [5], the binding result is “binds”.

B11: c-Crk N-terminal SH3 domain (134-191) analogue, dipeptide GD (156-157) replaced by Gly-[COS]-Gly (other)
chain: AEYVRALFDFNGNDEEDLPFKKGGILRIRDKPEEQWWNAEDSEGKRGMIPVPYVEKYR
modifications: not fully specified; Gly-[COS]-Gly unit (-NHCH2CO-SCH2CO-) in place of G156-D157; backbone thioester (S in place of the NH of residue 157)
notes: Member of the nine-member Gly-[COS]-Gly array over cCrk(156-165); G156 stays Gly; Positions count on murine c-Crk; also called GD (Gly-[COS]-Gly array)
Turning to B11, the binding result in assay [5] is “binds”.

B12: c-Crk N-terminal SH3 domain (134-191) analogue, dipeptide KP (164-165) replaced by Gly-[COS]-Gly (other)
chain: AEYVRALFDFNGNDEEDLPFKKGDILRIRDGGEEQWWNAEDSEGKRGMIPVPYVEKYR
modifications: not fully specified; Gly-[COS]-Gly unit (-NHCH2CO-SCH2CO-) in place of K164-P165; backbone thioester (S in place of the NH of residue 165)
notes: Member of the nine-member Gly-[COS]-Gly array over cCrk(156-165); Positions count on murine c-Crk; also called KP (Gly-[COS]-Gly array)
Turning to B12, the binding result in assay [5] is reported as “binds”.

B13: c-Crk N-terminal SH3 domain (134-191) analogue, dipeptide DK (163-164) replaced by Gly-[COS]-Gly (other)
chain: AEYVRALFDFNGNDEEDLPFKKGDILRIRGGPEEQWWNAEDSEGKRGMIPVPYVEKYR
modifications: not fully specified; Gly-[COS]-Gly unit (-NHCH2CO-SCH2CO-) in place of D163-K164; backbone thioester (S in place of the NH of residue 164)
notes: Member of the nine-member Gly-[COS]-Gly array over cCrk(156-165); Positions count on murine c-Crk; also called DK (Gly-[COS]-Gly array)
Consider B13, for which the binding result in assay [5] is recorded as “binds”.

B14: c-Crk N-terminal SH3 domain (134-191) analogue, dipeptide RI (160-161) replaced by Gly-[COS]-Gly (other)
chain: AEYVRALFDFNGNDEEDLPFKKGDILGGRDKPEEQWWNAEDSEGKRGMIPVPYVEKYR
modifications: not fully specified; Gly-[COS]-Gly unit (-NHCH2CO-SCH2CO-) in place of R160-I161; backbone thioester (S in place of the NH of residue 161)
notes: Member of the nine-member Gly-[COS]-Gly array over cCrk(156-165); Positions count on murine c-Crk; also called RI (Gly-[COS]-Gly array)
Take B14: the binding result in assay [5] is listed as “binds”.
